3 proteins from paper PMC10519446 can be followed below.

Substrate in the data set: Nc1ncnc2c1ncn2[C@@H]1O[C@H](COP(=O)(O)OP(=O)(O)OP(=O)(O)O)[C@@H](O)[C@H]1O
Description: purified protein. As to conditions: co-substrate N-acetylmannosamine.

B1: NanK (N-acetylmannosamine kinase) (Escherichia coli K-12) (protein)
chain: MTTLAIDIGGTKLAAALIGADGQIRDRRELPTPASQTPEALRDALSALVSPLQAHAQRVAIASTGIIRDGSLLALNPHNLGGLLHFPLVKTLEQLTNLPTIAINDAQAAAWAEFQALDGDITDMVFITVSTGVGGGVVSGCKLLTGPGGLAGHIGHTLADPHGPVCGCGRTGCVEAIASGRGIAAAAQGELAGADAKTIFTRAGQGDEQAQQLIHRSARTLARLIADIKATTDCQCVVVGGSVGLAEGYLALVETYLAQEPAAFHVDLLAAHYRHDAGLLGAALLAQGEKL
As a reminder, the kcat is the maximal rate divided by the concentration of active sites. Consider B1, for which the Km result is recorded as “(1.4 ± 0.2)×10^−4 M” and the kcat was 29 ± 0.5 s⁻¹.

B2: NanK (N-acetylmannosamine kinase) (Escherichia coli K-12; L84P) (protein)
chain: MTTLAIDIGGTKLAAALIGADGQIRDRRELPTPASQTPEALRDALSALVSPLQAHAQRVAIASTGIIRDGSLLALNPHNLGGLPHFPLVKTLEQLTNLPTIAINDAQAAAWAEFQALDGDITDMVFITVSTGVGGGVVSGCKLLTGPGGLAGHIGHTLADPHGPVCGCGRTGCVEAIASGRGIAAAAQGELAGADAKTIFTRAGQGDEQAQQLIHRSARTLARLIADIKATTDCQCVVVGGSVGLAEGYLALVETYLAQEPAAFHVDLLAAHYRHDAGLLGAALLAQGEKL
Regarding B2, the Km entry is listed as “(1.4 ± 0.3)×10^−4 M” and the kcat is 13 ± 0.2 s⁻¹.

B3: NanK (N-acetylmannosamine kinase) (Escherichia coli K-12; L84R) (protein)
chain: MTTLAIDIGGTKLAAALIGADGQIRDRRELPTPASQTPEALRDALSALVSPLQAHAQRVAIASTGIIRDGSLLALNPHNLGGLRHFPLVKTLEQLTNLPTIAINDAQAAAWAEFQALDGDITDMVFITVSTGVGGGVVSGCKLLTGPGGLAGHIGHTLADPHGPVCGCGRTGCVEAIASGRGIAAAAQGELAGADAKTIFTRAGQGDEQAQQLIHRSARTLARLIADIKATTDCQCVVVGGSVGLAEGYLALVETYLAQEPAAFHVDLLAAHYRHDAGLLGAALLAQGEKL
For B3, the Km entry is given as “(8.3 ± 1.4)×10^−5 M” and the kcat was determined as 17 ± 0.3 s⁻¹.
